Experimental data: PMC11452509

What was measured:
Test in all cases: SPR
[1] = target: trastuzumab produced in CHO-K1 cells (human (detected with anti human IgG (H + L)))
[2] = target: trastuzumab produced in CHO-gmt13 cells (human (detected with anti human IgG (H + L)))
[3] = target: trastuzumab produced in CHO-gmt21 cells (human (detected with anti human IgG (H + L)))
[4] = target: trastuzumab produced in CHO-gmt8 cells (human (detected with anti human IgG (H + L)))
[5] = target: trastuzumab produced in CHO-gmt9 cells (human (detected with anti human IgG (H + L)))

A Kd [1] of 560 nM, a Kd [2] of 780 nM and a Kd [3] of 799 nM were found for “extracellular domain of human FcγRIIIa with a His-tag (from UniProt P08637 17-208) (receptor)” in this work. For the same substance, the Kd [4] was 200 nM and the Kd [5] was 80 nM.
